B1: Pre-miR-367: precursor of miR-367 purchased from Ambion; exemplified pre-miR367 precursor sequence SEQ ID NO:158 (nucleic acid)
chain: CCAUUACUGUUGCUAAUAUGCAACUCUGUUGAAUAUAAAUUGGAAUUGCACUUUAGCAAUGGUGAUGG
modifications: listed as RNA, chemistry not given here

How the values were obtained:
[1] = test system: renal cell line TK-10; settings: TK-10 renal cell line; publicly available GI50; cited from earlier work
[2] = test system: renal cell line 786-0; settings: 786-0 renal cell line; publicly available GI50; cited from earlier work
[3] = test system: miR-367; test: Real-time quantitative RT-PCR of miR-367 after transfection, 786-0 cells; format: cell-based, human; settings: 50 nM final, QPCR normalized to RNU44
Experimental: (§1) miR-367 Transfection. Pre-miR-367 and Anti-miR-367 were purchased from Ambion. Log-phase cells (˜60% confluency) were transfected with 6.25 μM Pre-miR-367 or Anti-miR-367 using siPORT NeoFX transfection reagent (Ambion) at a final concentration of 50 nM according to manufacturer's instructions. Controls included transfection of a non-targeting miRNA (Negative Control #1).
(§2) Real-time Quantitative RT-PCR of miRNA. Real-time Quantitative RT-PCR was used to validate successful miRNA transfection. TaqMan®MicroRNA Reverse Transcription kit (Applied Biosystems) was used to convert specific miRNAs to cDNA. RNU44 was used as control for quantification. Per Applied Biosystems' protocol, real-time PCR was performed adding 1.34 μl of each completed RT reaction to target TaqMan microRNA Assay reaction with TaqMan Universal PCR Master Mix (final reaction volume equal 20 μl). Samples (786-0 and TK-10 cell lines transfected with Pre-miR-367 precursor, Anti-miR-367 inhibitor, and Anti-miR-inhibitor Negative Control #1) were evaluated in triplicate and run on the Applied Biosystems 7900HT Fast Real-Time PCR System. Assay data was analyzed using SDS 2.2.2 software.

[4] = test system: TK-10 cells; test: Growth inhibition assay (CellTiter-Glo), topotecan after miR-367 modulation; format: cell-based, human; settings: TK-10 cells (topotecan resistant, low miR-367), topotecan 48 hours, 24 hours after transfection
Experimental: as §1
(§3) Growth inhibition assay. Topotecan, obtained from Sequola Research Products Ltd, was dissolved in DMSO (Sigma) at concentration of 20 mM and stored at −20° C. Cells were seeded in 96-well plates (Nunc) at a density of 5×10^5 cells per ml and incubated overnight at 37° C. Cells were incubated with the indicated concentrations of topotecan for 48 hours and cell viability was analyzed using the CellTiter-Glo™ luminescent cell viability assay kit (Promega). Luminescence was recorded using Wallac Victor^2™ 1420 Multilabel Counter (Perkin Elmer Life Sciences). Wells containing medium without cells were used to obtain background luminescence. All experimental wells and controls were set up in triplet.
(§4) The effects of miR-367 modulation on topotecan-induced cell death and growth arrest were evaluated using the CellTiter-Glo' luminescent cell viability assay (FIG. 2). Twenty-four hours after transfection, cells were subject to 48 hours of topotecan treatment.

[5] = test system: 786-0 cells; test: as above; format: cell-based, human; settings: 786-0 cells (topotecan sensitive, high miR-367), topotecan 48 hours, 24 hours after transfection
Experimental: as §1, §3, §4

[6] = test system: miR-367; test: Real-time quantitative RT-PCR of miR-367 after transfection, TK-10 cells; format: cell-based, human; settings: 50 nM final, QPCR normalized to RNU44
Experimental: as §1, §2

| Molecule | log10 GI50 [1] | log10 GI50 [2] | miR-367 levels compared to non-targeting miRNA control [3] | change in sensitivity to topotecan-induced cell death and growth arrest vs non-targeting control [4] | change in sensitivity to topotecan-induced cell death and growth arrest vs non-targeting control ([4]; listed as miR-367 precursor) | change in sensitivity to topotecan-induced cell death and growth arrest vs non-targeting control ([4]; listed as pre-miR-367) | change in sensitivity to topotecan-induced cell death and growth arrest vs non-targeting control ([4]; listed as precursor to miR-367) | change in sensitivity to topotecan-induced cell death and growth arrest vs non-targeting control [5] | change in sensitivity to topotecan-induced cell death and growth arrest vs non-targeting control ([5]; listed as pre-miR-367) | miR-367 levels compared to non-targeting miRNA control [6] |
| --- | --- | --- | --- | --- | --- | --- | --- | --- | --- | --- |
| CC[C@@]1(O)C(=O)OCc2c1cc1n(c2=O)Cc2cc3c(CN(C)C)c(O)ccc3nc2-1 [Topotecan] | −5.279 | −7.903 |  |  |  |  |  |  |  |  |
| B1 |  |  | increase | significantly increased cell death and growth arrest induced by topotecan | increased sensitivity to topotecan | increase in topotecan-induced cell death | significant increase in topotecan-induced cell death and growth arrest | No differences in topotecan sensitivity | increase in topotecan-induced cell death | increase |
